The text below walks through data of PMC9813072 (Osteoporosis International, 2022).

Series [1] is classed as in vivo, healthy men and postmenopausal women. The following applies: single SC 20 μg; N = 105 per treatment.
The conditions of series [2]: cited from earlier work.
The next series has as its system serum calcium. Conditions: teriparatide 20 μg once a day; cited from earlier work.

Turning to “EU-teriparatide: Forsteo®, Eli Lilly, The Netherlands; EU-approved teriparatide reference product”, in series [1], the “Total adverse events, number of events” value was 5 e and the “Total adverse events, subjects” value was 4 (3.81%) n (%).
As to Teriparatide, the Half-life entry in series [2] (after SC injection) is reported as “approximately 1 h”. Also, the “Time to peak serum concentration” value in series [2] (after SC injections of 20, 40, and 80 μg) was “approximately 30 min”. The Absolute bioavailability in series [2] (following SC administration) is reported as 95%. Besides, the “Median increase of serum calcium at peak” value in the series with serum calcium was 0.4 mg/dL.
As for “Teriparatide biosimilar: potential biosimilar of teriparatide developed by Intas Pharmaceutical Ltd., India; test product”, in series [1], the “Total adverse events, subjects” value was 8 (7.62%) n (%).
With “US-teriparatide: Forteo®, Lilly USA; US-approved teriparatide reference product”, in series [1], the “Total adverse events, number of events” value stood at 3 e and the “Total adverse events, subjects” value was 3 (2.86%) n (%).
